Data: US7214663B2, “Tripeptide prodrug compounds” (Medarex, Inc., priority 2001, dated 2007)
Like-named read-outs stand apart in the source and are kept apart here.

What was measured:
[1] = Repeat-dose tolerability / repeat dose MTD in tumor bearing mice; format: in vivo, mouse; settings: mouse, in vivo, intravenous, five doses, based on efficacy study in Example 12
Text: (§1) In one study, one animal in each dose group (n=8) was terminated as a possible drug-related toxicity death late in the study, at Days 58 and 57 in the low and high dose-groups respectively. The safety of the compound was evidenced by little body weight loss in either the high or low dose groups (less than 5% of the initial weight) during the 60-day observation period, in surviving animals (FIG. 14). In the other study, both the high and low dose were well tolerated. Only one animal in the high dose group (n=10) had over 15% of body weight loss at the end of the study (Day 61).
(§2) In repeat-dose studies in tumor bearing mice, groups of ten mice were dosed with various amounts of prodrug for a total of five doses at either five day or 1 week intervals. […] Thus, the prodrugs permit a much greater amount of therapeutic agent to be delivered to the body as a whole and thus to the vicinity of the target cell.

[2] = test system: tumor-bearing nude mice; experiment: as above; format: in vivo, mouse
Text: as §1, §2

[3] = test system: Namalwa cells (CD10pos); experiment: cells; format: cell-based, human; settings: 24 hours, 3H-thymidine
Method: In addition to LNCaP, a number of B-cell lines, such as Ramos and Namalwa cells express CD10 (CD10^pos cells).
Suspension cells, BALL-1, Ramos and Namalwa cells were cultured in RPMI media containing 10% heat inactivated fetal calf serum (FCS). On the day of the study, the cells were collected, washed and resuspended at a concentration of 0.5×10^6 cells/ml in RPMI containing 10% FCS. 100 μl of cell suspension was added to 96 well plates. […] Finally 10 μl of a 100 μCi/ml ^3H-thymidine was added per well and the plates were incubated for 24 hours. The plates were harvested using a 96 well Harvester (Packard Instruments) and counted on a Packard Top Count counter. Four parameter logistic curves were fitted to the ^3H-thymidine incorporation as a function of drug molarity using Prism software to determine IC50 values.

[4] = test system: HeLa cell anion exchange fraction (F1), trouase; experiment: Relative cleavage by HeLa cell anion exchange fraction (F1) versus Suc-βAla-Leu-Ala-Leu standard; format: biochemical, human
Method: Thirty billion commercially produced HeLa Cells (human cervical carcinoma, Computer Cell Culture Ceizter, Seneffe, Belgium) were homogenized with a sonicator and with a Dounce homogenizer in 108 mL of aqueous lysis solution. The lysis solution contained 0.02% w/v Triton X-100, 0.04% w/v sodium azide, and a cocktail of protease inhibitors (2 tablets/50 mL Complete™, EDTA-free tablets, Roche Molecular Biochemicals). The cell homogenate was centrifuged 30 minutes at 4° C. at 5000×g and the pellet was homogenized in a second 108 mL of lysis solution using a Dounce homogenizer and centrifuged as before. The supernatants were combined and centrifuged for 90 min at 145,000×g at 4° C.
A portion of the ultracentrifugation supernatant was diluted 2-fold with a 20 mM triethanolamine-HCl pH 7.2 buffer containing 0.01% (w/v) Triton X-100 and 0.02% (w/v) sodium azide (equilibration buffer). Thirty mL of the resulting solution, corresponding to approximately 180 mg of protein, was loaded at 4° C. on a 2.6×9.4 cm Source™ 15Q (Amersham Pharmacia Biotech) low pressure anion exchange chromatography column (1 ml/minute). The column was then washed with 250 ml of the equilibration buffer at a flow rate of 1 mL/minute. Proteins were eluted in a NaCl linear concentration gradient (0–0.5 M in the equilibration buffer, total volume of the gradient was 1000 ml) at a flow rate of 3 ml/minute. Two-minute fractions were collected and used for enzyme activity determination using βAla-Leu-Ala-Leu-Dox as the substrate. Its transformation into Ala-Leu-Dox was quantified by reverse phase high performance liquid chromatography utilizing fluorescence detection of the anthracycline moiety. The fractions containing the highest activity levels were pooled (fractions #43–46; ˜0.13 M NaCl), supplemented with protease inhibitors (Complete™, EDTA-free tablets, Roche Molecular Biochemicals), and stored as aliquots at −80° C.
Test compounds were incubated for 2 hr at 37° C. at a concentration of 12.5 μg/mL with HeLa cell anion exchange fraction (F1), as prepared in Example 1(c). Following incubation, three volumes of acetonitrile were added to stop the reaction and remove protein from the mixture. The sample was centrifuged at 18,000 g for 5 minutes and 100 μL of supernatant was mixed with 300 μL of water prior to analysis by HPLC. For HPLC analysis 50 μL of sample was injected on a 4.6×50 mm 2μ TSK Super-ODS chromatography column at 40° C. and eluted with a 3 minute linear gradient from 26% to 68% acetonitrile in aqueous 20 mM ammonium acetate pH 4.5 buffer at 2 mL/min. Detection was by fluorescence using an excitation wavelength of 235 nm and an emission wavelength of 560 nm.
the amount of cleavage of each test compound was compared to the amount of a standard Suc-βAla-Leu-Ala-Leu-therapeutic agent conjugate cleaved by F1 under the same conditions. The therapeutic agent in the standard (Dox or Dnr) was the same as in the test compound. Table 3 provides the relative cleavage rates of several tripeptide prodrugs.

[5] = test system: healthy young female normal mice
[6] = test system: normal ICR mice; experiment: Single dose Maximum Tolerated Dose (SD-MTD) study, 49 days, ICR mice (Examples 5 and 6)
Method: In a second single dose Maximum Tolerated Dose (SD-MTD) study, groups of five normal ICR mice were administered intravenous bolus doses of Suc-Leu-Ala-Leu-Dox. The mice were observed daily for 49 days and body weights measured twice weekly.
In a second single dose Maximum Tolerated Dose (SD-MTD) study, groups of five normal ICR mice were administered intravenous bolus doses of Suc-Leu-Ala-Gly-Dox. The mice were observed daily for 49 days and body weights measured twice weekly.

[7] = test system: human colon carcinoma (LS174T); experiment: LS174T xenograft efficacy study
Method: Healthy young female nude mice were subcutaneously implanted with chunks of LS174T. […] Tumor size and body weights were measured twice weekly for up to 60 days.

[8] = mouse, in vivo, intravenous
[9] = first experiment, as first stated
[10] = recalculation (about 47% active compound)

Structure (SMILES): COc1cccc2c1C(=O)c1c(O)c3c(c(O)c1C2=O)C[C@@](O)(C(=O)CO)C[C@@H]3O[C@H]1C[C@H](NC(=O)[C@H](CC(C)C)NC(=O)[C@H](C)NC(=O)[C@H](CC(C)C)NC(=O)CCC(=O)O)[C@H](O)[C@H](C)O1 [Suc-Leu-Ala-Leu-Dox]
- MTD at 60 day [1]: ~52 mg/kg
- acute signs of toxicity following repeat administration ([2]; 52 or 63 mg/kg every 5 days for five doses): no acute signs of toxicity
- body weight loss, % of the initial weight ([2]; 52 or 63 mg/kg intravenously every 5 days for five doses, 60-day observation): less than 5%
- Optimal Efficacy Repeat Dose (mg/kg), value in parentheses (doxorubicin equivalent dose) ([2]; Table 11, five doses at five day or 1 week intervals): 38 mg/kg
- Optimal Efficacy Repeat Dose ([2]; Table 11, five doses at five day or 1 week intervals, tumor bearing mice, 60 days): 63 mg/kg
- IC50 [3]: 2270 nM
- Relative Cleavage % ([4]; 2 hr at 37° C., 12.5 μg/mL, HeLa F1, relative to Suc-βAla-Leu-Ala-Leu-(Dox or Dnr) standard): 62%
- Relative Rate of Cleavage ([4]; relative to Suc-βAla-Leu-Ala-Leu-Dox = 100 (Tables 11 and 12)): 62
- equivalent dose of doxorubicin safely administered [5, 9]: 66 mg/kg
- fold higher than possible with doxorubicin alone [5, 9]: approximately 8 fold
- mortalities over the 28-day study ([5]; intravenous 23-117 mg/kg): no mortalities
- single-dose MTD ([5]; intravenous, mice, 28-day study, first experiment, doses as first stated): greater than 117 mg/kg
- equivalent dose of doxorubicin safely administered [5, 10]: 70 mg/kg
- fold higher than possible with doxorubicin alone [5, 10]: approximately 3.3 fold
- single dose MTD, fold higher than doxorubicin alone ([5]; repeated experiment): at least 1.2 fold
- acute toxicity, within 24 hours ([6]; any dose level): no acute toxicity
- SD-MTD (mg/kg Dox =) ([6]; doxorubicin equivalent, intravenous bolus, ICR mice, Day 49): 42 mg/kg Dox =
- dose groups with toxicity (partial hind-end paralysis, body weight loss >20%) ([6]; single intravenous bolus, 49 days): ≥ 94 mg/kg
- Mean Day of Survival ([7]; 52 mg/kg every 5 days for 5 doses): 20 days
- Mean Day of Survival ([7]; 63 mg/kg every 5 days for 5 doses): 32 days
- anti-tumor activity in LS174T xenograft ([7]; doxorubicin-insensitive model): decreased the rate of tumor growth considerably
- MTD at 28 day [8]: ~59 mg/kg
